From patent publication US12129308B2, “MMP13 binding immunoglobulins” (Merck Patent GmbH, priority 2017, dated 2024) come the findings set out here.

The nature of one data set: temperature stress. Type of data set: physicochemical. To be noted: forced oxidation and temperature stress conditions. The method, then:
Nanobody samples (1-2 mg/ml) were stored in PBS for four weeks at −20° C. (negative control) 25 and 40° C. After this incubation period, Nanobodies were digested with Trypsin or LysC. Peptides of stressed and control samples were then analyzed by means of RPC on a Series 1290 machine (Agilent Technologies) over an Acquity UPLC BEH300-C18 column (Agilent Technologies) at 60° C. coupled to a Q-TOF mass spectrometer (6530 Accurate Mass Q-TOF (Agilent))
(§1) In order to assess potential PTM, forced oxidation and temperature stress was applied on the lead panel.

The nature of the next data set: SDS-Page. Format: physicochemical.
Data set [1] in a line: analytical size exclusion chromatography (aSEC). Format: physicochemical. To be noted: main peak. The method, then:
Analytical SEC experiments were performed on an Ultimate 3000 machine (Dionex) in combination with a Biosep-SEC-3 (Agilent) column.
The tendency for multimerisation and aggregation of a selected panel of 5 representative anti-MMP13 Nanobodies was investigated by analytical size exclusion chromatography (aSEC).
(SEC sorts molecules by how far they enter the pores of the column.)

Data set [2] is described as follows: thermal shift assay (TSA). Format: physicochemical. To be noted: for Tm at pH 7: pH 7, monovalent Nanobodies; for TSA Tm (° C.)@ pH 7: C0101517A01 2nd round sequence optimization variants. The method, then: TSA was carried out with 5 μl of purified monovalent Nanobodies in essence according to Ericsson et al. (2006 Anals of Biochemistry, 357: 289-298).
The thermal stability of the wildtype anti-MMP13 Nanobodies was investigated in a thermal shift assay (TSA).

Data set [3] addresses T1, MMP13 (Homo sapiens, UniProt P45452). The data set is described as follows: fluorogenic peptide assay for sequence optimization variants and NNK libraries (species not stated). Format: biochemical. Conditions: C0101517A01 2nd round sequence optimization variants. As for the experimental part: (§2) The setup of human, cynomolgus, rat, dog and bovine MMP13 fluorogenic peptide assays, as well as human MMP1 and MMP14 fluorogenic peptide assays is in brief as follows: activated MMP was incubated with fluorogenic peptide substrate Mca-PLGL-Dpa-AR-NH2 (R&D Systems #ES001) and a ⅕ dilution of periplasmic extract or a dilution series of purified Nanobody/positive control (total volume=20 μl in assay buffer 50 mM Tris pH 7.5, 100 mM NaCl, 10 mM CaCl2, 0.01% Tween20), for 2 h at 37° C.
However, the degree of isomerization and oxidation differed at the assessed conditions and were just below or above the applied threshold in each case. Eventually, amino acid residues 54-55, 100d-100e, M100j and 101-102 were identified as the residues responsible for the PTM. […] In order to attempt accommodating the different requirements, […] were constructed in which these residues were mutated, and subsequently screened in the fluorogenic peptide assay to evaluate possible potency losses as well as screened for biophysical properties (Tm).
Eventually, amino acid residues N100b and N101 were identified as residues sensitive to deamidation via temperature stress experiments. However, these residues are located in the CDR3 region, and potentially involved in target binding. Thus, knocking out the deamidation sites could have an impact on binding.

The target of a further data set is human full-length MMP13 (Homo sapiens, UniProt P45452). The data set is described as follows: competition ELISA against biotinylated 40E09 (epitope binning). Format: binding. To be noted: 0.6 nM biotinylated 40E09. The method, then: FIG. 3: Competition ELISA with 0.6 nM biotinylated 40E09 against a panel of profile 1 and profile 2 Nanobodies on human full-length MMP13, coated via mouse anti-human MMP13 mAb (R&D Systems #MAB511). MMP13 was activated via incubation with APMA for 90 min at 37° C.
For epitope-binning a panel of monovalent Nanobodies derived from profile 1 and profile 2 were tested in a competition ELISA against the purified Nanobody 40E09 (profile 1).

Data set [4] has as its target T2, activated MMP13 (Homo sapiens, UniProt P45452). The data set is described as follows: human fluorogenic collagen assay (DQ Collagen type I). Type of data set: biochemical. To be noted: Table 6.5. As for the experimental part: In brief, the setup of this assay is as follows: 100 μg/ml DQ™ Collagen, type I from Bovine skin (fluorescein conjugate; Molecular Probes #D-12060 lot 1149062) was incubated with 10 nM activated MMP13 and a dilution series of purified Nanobody/positive control, for 2 h at 37° C. in 40 μl assay buffer (50 mM Tris-Cl pH 7.5, 100 mM NaCl, 10 mM CaCl2, 0.01% Tween-20).
(§3) The potency/efficacy of the Nanobodies was tested in the fluorogenic peptide assay, set up for different MMP13 orthologues and in the human collagenolytic assay (both assays were also used during screening, see Example 6.3). In addition, a second collagen-based assay (fluorogenic collagen assay) using higher Collagen concentrations in comparison with the collagenolytic assay was established to simulate the high Collagen concentration conditions in cartilage in which the MMP13 inhibitor is expected to be active. In this assay the fluorescence of the intact FITC-labelled Collagen substrate is low due to the reciprocal quenching effect of the fluorophores. Upon cleavage, quenching is lost and fluorescence increases.
In FIG. 1 the dose response curves for inhibition of activated human MMP13 when using high concentrations of bovine Collagen I (fluorogenic Collagen assay) are depicted.

Data set [5] concerns the target T2, activated MMP13. The data set is described as follows: human collagenolytic assay (human Collagen II). Type of data set: biochemical. To be noted: low Collagen concentration conditions. As for the experimental part: The setup of this assay is in brief as follows: 250 ng/ml immunization grade human Collagen II (Chondrex #20052) was incubated with 5 nM activated MMP13 in 100 μl assay buffer (50 mM Tris-Cl pH 7.5, 100 mM NaCl, 10 mM CaCl2, 0.01% Tween-20). After 1.5 h incubation at 35° C., the reaction was neutralized with EDTA (10 μl of 30 mM stock). […] Remaining intact Collagen was detected via ELISA (reagents provided in Type II Collagen Detection kit (Chondrex #6009)).

In another data set the target is rat MMP13 (Rattus norvegicus, UniProt P23097). The data set is described as follows: adapted (more sensitive) rat fluorogenic peptide assay. Type of data set: biochemical. To be noted: 0.15 nM MMP13 instead of 1.33 nM. As for the experimental part:
as §2
As best species cross-reactive binder (cf. Example 6.4.2) Nanobody 40E09 was selected as representative of profile 1 Nanobodies. For profile 2, three Nanobodies were selected: 516G08, 62C02 and 517A01. Profile 1 and profile 2 Nanobodies were combined in a bivalent format with a 35GS linker (see Table 6.5; Nb(A)-35GS-Nb(B)). The bivalent Nanobodies were cloned into pAX205, transformed into P. pastoris, expressed and purified according to standard procedures. […] Bivalent constructs were tested in this adapted fluorogenic peptide assay as well as in the human fluorogenic collagen assay.

Data set [6] concerns the target T1, MMP13. The data set is described as follows: human MMP13 fluorogenic peptide assay. Type of data set: biochemical. As for the experimental part: as §2, §3
The next data set is described as follows: forced oxidation. Type of data set: physicochemical. To be noted: forced oxidation and temperature stress conditions. The method, then: Nanobody samples (1 mg/ml) were subjected for four hours at RT and in the dark to 10 mM H2O2 in PBS, in parallel with control samples without H2O2, followed by buffer switch to PBS using Zeba desalting spin columns (0.5 ml) (Thermo Scientific). Stressed and control samples were then analyzed by means of RPC on a Series 1200 or 1290 machine (Agilent Technologies) over a Zorbax 300SB-C3 column (Agilent Technologies) at 70° C. Oxidation of Nanobodies was quantified by determination of % peak area of pre-peaks occurring as a result of oxidative stress, compared to the main protein peak.
as §1

Positions count from the first letter of the chain named. In names and notes the source's numbering stands.

B1: 517A01: anti-MMP13 Nanobody, profile 2, SEQ ID NO: 10; C010100087 is the parental of Table 6.7.1D (protein)
VHH: DVQLVESGGGLVQPGGSLRLSCAASGRTFSSYAMGWFRQAPGKEREFVAAISWSGGSTYYADSVKGRFTISRDNSKNTVYLQMNSLRPEDTAVYYCTAALAVYGPNRYRYGPVGEYNYWGQGTLVTVSS
The Tm is the temperature at which the thermal transition is half complete. As to B1, the deamidation entry in “temperature stress” is given as “prone to deamidation”. In addition, the SDS-Page results in the data set “SDS-Page” came to 1 band. In addition, in data set [1], the relative area amounted to 100%. Further, in data set [2], the “Tm at pH 7” value was found to be 77.8 °C and the “TSA Tm (° C.)@ pH 7” value was 78 °C.

B2: C010100649: C0101517A01 sequence optimization variant, mutations N100bS, N101Q (protein)
VHH: B1 VHH with N106S, N117Q
As a reminder, the IC50 is the point on the concentration scale where inhibition reaches its midpoint. A low value points to greater potency. Regarding B2, the IC50 in the data set with MMP13 [3] worked out at 2 nM. The “TSA Tm (° C.)@ pH 7” value in [2] came out at 79 °C.

B3: C010100647: C0101517A01 sequence optimization variant, mutations N100bQ, N101V (protein)
VHH: B1 VHH with N106Q, N117V
For B3, the IC50 with MMP13 [3] came out at 2.1 nM. Further, the “TSA Tm (° C.)@ pH 7” value in data set [2] worked out at 81 °C.

B4: C010100648: C0101517A01 sequence optimization variant, mutations N100bQ, N101Q (protein)
VHH: B1 VHH with N106Q, N117Q
B4: in the data set with MMP13 [3], the IC50 was found to be 2.8 nM. The “TSA Tm (° C.)@ pH 7” value in data set [2] is 81 °C.

B5: C010100650: C0101517A01 sequence optimization variant, mutations N100bS, N101V (protein)
VHH: B1 VHH with N106S, N117V
Molecule B5 displayed an IC50 in the data set with MMP13 [3] of 2.1 nM. Besides, in data set [2], the “TSA Tm (° C.)@ pH 7” value came out at 81 °C.

B6: 40E09: anti-MMP13 Nanobody, profile 1, SEQ ID NO: 1 (protein)
VHH: EVQLVESGGGSVQAGGSLRLSCAASGSTFSRYSMNWYRQAPGKQREFVAGISVGRITNYAVSVRGRFTISRDNAEGTGYLQMNSLKPEDTAVYYCNAGGLQGYWGLGTQVTVSS
Regarding B6, in the data set with human full-length MMP13, the “competition with 40E09 in competition ELISA” value is “compete with 40E09”. In “SDS-Page”, the SDS-Page results is reported as 1 band. The relative area in data set [1] is reported as 100%. Further, the “IC50 human fluorogenic collagen assay” value with activated MMP13 [4] was “partial”. In addition, the “efficacy / inhibition in the collagenolytic assay” value in the data set with activated MMP13 [5] is “positive”. Moreover, the “IC50 (adapted) rat fluorogenic peptide assay” value in the data set with rat MMP13 is recorded as “neutral”. Besides, in the data set with MMP13 [6], the “inhibition in the fluorogenic peptide assay (screening)” value is given as “incomplete inhibition”. Besides, the “Tm at pH 7” value in [2] was 68.6 °C.

B7: 516G08: anti-MMP13 Nanobody, profile 2, SEQ ID NO: 13 (protein)
VHH: DVQLVESGGGLVQPGGSLRLSCAGSGSIFRINVMAWYRQAPGKQRELVAAITSGGTTNYADSVKGRFTISRDNSKNTVYLQMNSLRPEDTAVYYCYADIGWPYVLDYDFWGQGTLVTVSS
B7: in [2], the “Tm at pH 7” value turned out to be 65.2 °C.

B8: 529C12: anti-MMP13 Nanobody, profile 2, SEQ ID NO: 9 (protein)
VHH: DVQLVESGGGLVQPGGSLRLSCVASGSIFSINAMGWYRQAPGKQRELVAAISSGGSTYYADSVKGRFTISRDNSKNTVYLQMNSLRPEDTAVYYCNAAVDASRGLPYELYYYWGQGTLVTVSS
B8 gave an SDS-Page results in the data set “SDS-Page” of 1 band. The relative area in data set [1] is on record as 100%. The “Tm at pH 7” value in data set [2] came to 82.7 °C.

B9: 62C02: anti-MMP13 Nanobody, profile 2, SEQ ID NO: 11 (protein)
VHH: EVQLVESGGALVRPGGSLRLSCAASGFAFSAAYMSWVRQAPGRGLEWVSSISDDGSKTYYADSVKGRFTISRDNAKNTVYLQMNNLKPDDTAVYYCNTGYGATTTRPGRYWGQGTQVTVSS
Take B9: the relative area in data set [1] is 100%. The “Tm at pH 7” value in data set [2] is 76.4 °C.

B10: 80A01: anti-MMP13 Nanobody, profile 2, SEQ ID NO: 12 (protein)
VHH: EVQLVESGGGLVQPGGSLRLSCAASGFTLAYYSIGWFRQAPGKEREGVSCISSGIDGSTYYADSVKGRFTISRDNAKNTMYLQMNNLKPEDTGVYYCAADPSHYYSEYDCGYYGMDYWGKGTLVTVSS
Turning to B10, the Asp-isomerization result in the data set “temperature stress” was “prone to Asp-isomerization”. In addition, the relative area in [1] was 95%. Besides, in “forced oxidation”, the Met-oxidation result was “prone”. Besides, the “Tm at pH 7” value in data set [2] turned out to be 68.6 °C.
